Laboratory results as given in patent US20220064321A1 (published 2022).

Columns and labels:
[1] = target: T1, FcγRIIIa(V158) (Sino Biological Inc, 10389-H08C1) (UniProt P08637 17-208); experiment: binding ELISA; His-tagged FcγRIIIa captured by anti-His antibody, IgG pre-complexed with goat F(ab')2 anti-human-κ (value in the text differs from Table 4)
T1 construct: also called Fc gamma receptor IIIa
Protocol: (§1) High protein binding Costar 96-well plates were coated with anti-His antibody (Genscript, A00186) (1 μg/ml, 100 μl/well) in a coating buffer (0.05 M sodium carbonate buffer, pH 9.6) overnight at 4° C. The wells were washed twice with PBS/0.05% Tween 20 (pH 7.4). The plates were blocked with 5% Non-Fat Milk Powder/PBS (pH 7.4) for 1.5 hours at 37′C. Plates were washed and FcγRIIIa (Sino Biological Inc, 10389-H08C1) (1 μg/ml, 100 μl/well) in PBS/0.05% Tween 20, pH 7.4 (assay buffer) was added to the plates. Antibodies were pre-incubated with goat F(ab′)₂anti-human-κ antibody (Sigma) at a 1:2 (w/w) ratio in assay buffer for 1 h to form complex to increase binding avidity. […] After a 2 h incubation, plates were washed and bound IgG was detected by adding horseradish peroxidase (HRP)) labeled goat F(ab′)2 anti-human IgG F(ab′)2 (Sigma). After a final 1 hour incubation, plates were washed and the substrate 3,3′,5,5′-tetramethyl benzidine (TMB) (InnoReagents) was added. The reaction was stopped by adding 1 M phosphoric acid, and the OD was measured at 450 nm using a microplate reader Spectra MAX I3 (Molecular Devices).

[2] = target: CD16a on effector cells NK92MI-CD16a (UniProt P08637 17-254, limits assumed); experiment: cell-based or functional assay
[3] = target: T1, FcγRIIIa(V158) (Sino Biological Inc, …); experiment: binding ELISA; His-tagged FcγRIIIa captured by anti-His antibody, IgG pre-complexed with goat F(ab')2 anti-human-κ, HRP anti-human F(ab')2 detection
Protocol: as §1

T1 sequence (P08637 17-208 F176V limits assumed): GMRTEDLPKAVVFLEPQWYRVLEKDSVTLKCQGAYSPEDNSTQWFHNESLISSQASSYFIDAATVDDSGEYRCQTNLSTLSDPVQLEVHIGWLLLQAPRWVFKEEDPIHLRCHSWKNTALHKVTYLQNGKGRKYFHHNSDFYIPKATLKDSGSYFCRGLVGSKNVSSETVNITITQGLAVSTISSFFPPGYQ
Sequence of CD16a on effector cells NK92MI-CD16a (P08637 17-254 limits assumed): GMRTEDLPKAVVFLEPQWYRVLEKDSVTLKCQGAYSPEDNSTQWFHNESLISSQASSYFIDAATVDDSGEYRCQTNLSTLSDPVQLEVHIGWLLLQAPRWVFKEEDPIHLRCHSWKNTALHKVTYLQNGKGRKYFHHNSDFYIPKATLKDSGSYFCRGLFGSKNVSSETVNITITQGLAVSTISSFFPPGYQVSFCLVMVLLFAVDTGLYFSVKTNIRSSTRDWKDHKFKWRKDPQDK

| EC50 [1] | ADCC Target cell: Daudi, EC50 [2] | ADCC Target cell: Raji, EC50 [2] | EC50 [3] | Binder |
| --- | --- | --- | --- | --- |
| 55 ng/mL | 0.0488 ng/mL | 0.00738 ng/mL | 52 ng/mL | anti-CD20 antibody MIL62 (antibody, human IgG1, kappa, N-glycans on the Fc region, not bisected by N-acetylglucosamine; core-fucosylated glycans 0.43% in the example batch (made in CHOK1-AF cells, Slc35c1 knocked out), In the FcγRIIIa ELISA the IgG was pre-complexed with goat F(ab')2 anti-human-κ antibody at 1:2 (w/w); also called MIL62 antibody; humanized anti-CD20 antibody of the present invention) light: DIVMTQTPLSLPVTPGEPASISCRSSKSLLHSNGITYLYWYLQKPGQSPQLLIYQMSNLVSGVPDRFSGSGSGTDFTLKISRVEAEDVGVYYCAQNLELPYTFGGGTKVEIKRTVAAPSVFIFPPSDEQLKSGTASVVCLLNNFYPREAKVQWKVDNALQSGNSQESVTEQDSKDSTYSLSSTLTLSKADYEKHKVYACEVTHQGLSSPVTKSFNRGEC heavy: not shown |
|  | 0.111 ng/mL | 0.0143 ng/mL | 113 ng/mL | GAZYVA® (obinutuzumab) (antibody, human IgG1, kappa, N-glycans on the Fc region, more than 76% bisected by GlcNAc; core-fucosylated glycans 48.03% in the example batch, In the FcγRIIIa ELISA the IgG was pre-complexed with goat F(ab')2 anti-human-κ antibody; also called afutuzumab; GA101) light: DIVMTQTPLSLPVTPGEPASISCRSSKSLLHSNGITYLYWYLQKPGQSPQLLIYQMSNLVSGVPDRFSGSGSGTDFTLKISRVEAEDVGVYYCAQNLELPYTFGGGTKVEIKRTVAAPSVFIFPPSDEQLKSGTASVVCLLNNFYPREAKVQWKVDNALQSGNSQESVTEQDSKDSTYSLSSTLTLSKADYEKHKVYACEVTHQGLSSPVTKSFNRGEC heavy: not shown |
